The nature of this series: soluble on expression in E. coli; label from the status in PepcDB or PDB records.
As to “MTSDGATSTSAAAAAAAAAAARRKPSWRERENNRRRERRRRAVAAKIYTGLRAQGDYNLPKHCDNNEVLKALCVEAGWVVEEDGTTYRKPLPGEIAGTSSRVTPYSSQNQSPLSSAFQSPIPSYQVSPSSSSFPSPSRGEPNNNMSSTFFPFLRNGGIPSSLPSLRISNSCPVTPPVSSPTSKNPKPLPNWESIAKQSMAIAKQSMASFNYPFYAVSAPASPTHRHQFHTPATIPECDESDSSTVDSGHWISFQKFAQQQPFSASMVPTSPTFNLVKPAPQQMSPNTAAFQEIGQSSEFKFENSQVKPWEGERIHDVGMEDLELTLGNGKARG”, the “soluble on expression in E. coli” value was “soluble”. On to “MVFKPHRINCRDFTFKIELKEKKILRGRAMLDKIDRKLLALLQQDCTLSLQALAEAVNLTTTPCWKRLKRLEDDGILIGKVALLDPEKIGLGLTAFVLIKTQHHSSEWYCRFVTVVTEMPEVLGVWRMAGEYDYLMRVQVADMKRYDEFYKRLVNSVPGLSDVTSSFAMEQIKYTTSLPIE”, for which the “soluble on expression in E. coli” value was “not soluble”.

As to “MGSDKIHHHHHHMSKLNMKEWINEIIQKKEVVAMPIMTHPGIEMIGKTVRDAVTDGQVHYNAIKALSEKYPTAAATVIMDLTVEAEAFGAEIVFPENEVPSVVGRLLNDEEAIDKLEIPALNKGRIPQYLKANMLAAKTITDRPVFAGCIGPYSLAGRLYDMSEIMMLIYINPEAANSLLKKCSDFILRYCMALKATGVNGVVMAEPAAGLLSDEDCTQYSSVFIKEIVEKVQDDHFTVILHNCGNTGHCTKAMVATGAAAYHFGNKIDMVEALKEVPADALAMGNLDPVSLFKAATPEVMKKATLDLLEATRSYPNFVLSSGCDTPPHTPSENIDAFFAALNEFNNA”, the “soluble on expression in E. coli” value was “not soluble”. Take “MQSAYSFLPQVIAHRGSSGQAPENTLASLHLAGQQGIKWVEIDVMLSGDGIPVIFHDDYLSRTTDGDGLIYKTPLAELKQLDAGSWKGQEYQQETIPTLLEAIEVISQYGMGLNLELKPCEGLEEETIAASVEVLKQHWPQDLPLLFSSFNYFALVSAKALWPEIARGYNVSAIPSAWQERLEHLDCAGLHIHQSFFDVQQVSDIKAAGYKVLAFTINDESLALKLYNQGLDAVFSDYPQKIQSAIDSHIN”: the “soluble on expression in E. coli” value is “soluble”. With “MKGVVEGQCGQQNALVGLANTFGTSNQRVAPSNAAASLLPSSSMGEQMANEFLRQQARTMAPTSFSMKSMQNNLPQASASSSLAANWTKEFQPRQNQLASQWSQQYTSSAPSMESAWRQVQAPSMTSTSSHQPITDAGMWSSEYLDTVDTSLTKSSGTQNWADDFMEQQDNYGMENTWKDAQAFEQRWEEIKRDMEKDESLQSPENYVYQEANPFTTMSDPLMEGDNLMRNGDIGNAMLAYEAAVQKDPQDARAWCKLGLAHAENEKDQLAMQAFQKCLQIDAGNKEALLGLSVSQANEGMENEALHQLDKWMSSYLGSNSTQVTTTPPLYSSFLDSDTFNRVEARFLDAARQQGATPDPDLQNALGVLYNLNRNFARAVDSLKLAISKNPTDARLWNRLGATLANGDHTAEAISAYREALKLYPTYVRARYNLGISCMQLSSYDEALKHFLSALELQKGGNDASGIWTTMRSAAIRTSNVPDNLLRAVERRDLAAVKASLV”, the “soluble on expression in E. coli” value is reported as “not soluble”. As to “MNDELFNLIERLANLLRQETRLEGQSLGLQPIQQEALYYLSTCNRYSDTTLAVTEFLGLTKGTVSQSLKILESKSLIAKVKDKKDKRITHLKVTETGREFLMKTCPPQKFTDAIAGLSVDEEFETKTLLKKVLSNYQLATGRTAFGVCKHCKFNRKTSDGILCDLTKEALSSDDIMLICREYVV”, the “soluble on expression in E. coli” value was “not soluble”. Consider “MGSDKIHHHHHHAQTCGATYITEFQYDLKKRTNWCNLLRLDAYVPIGTKGILEFASIHVYKTRPERIINDLQTFSNIEEDNLPCAIAVLGYTRLVGNVTLFAGIRNLNEDYFTTPCMSLFTNSSCGIFPTLSANYPIANYPLAALCLDYKMTLGRFGIESSLYNGKGYNGWSKGKHPFTFNPRKDGVFSITEINYQTEYGKCFGGFSLHTNGDMPDVAGEWKTREREKKVSPKMTFAWWGYAERKLWSRVRQEVNLLVQYTRTSSVFSECRNYMGAGVTWIYVPGGQKRHEAGLFLSAAQFKSCNEVAGEVTYRYSFNRDTYIQPAIHLIKNGGGLHEVFLIRMGYILNGGRVR”, for which the “soluble on expression in E. coli” value is listed as “not soluble”. Next, “MFLVVGQGNPGERYARTRHNLGFMVLDRLGLSFRPRGEALVAEAEGGLFLKPLTYYNLTGRAVAPLARFYKIPPERILVVHDEMDLPLGRIRFKAGGSAAGNRGVLSIEEALGTRAFHRLRLGIGKPPDPSRGAEYVLSPFREEELPVVERVLEAAKEAVWCWVREGLPPCAGRFNGLDLSLG”: “soluble”; “GPGSMKLLKFVNSDAPHTLADVQLRNQRLWFPCRHGNAAVAAKSWTLTAASPASVSGGYWLLDDDSQPICEITDVLLALPETAANAAGSSGTFAPRGVTDKDVDGIDFRSKMGRQMERERATYGATSKTATKSARTMMNAEEMTEKKNERMKREREAVAEAIEDNDASVMEPRKKERKHSKK”: “soluble”. In the case of “MGSDKIHHHHHHMKKFTLDYLSPRVVFGAGTASALPDEIGRLGARRPLVLSSPEQRELAKDIVRPIGDRVAGYFDGATMHVPVDVIQKAERAFNDTDADSIIAIGGGSTTGLAKILSMNLDVPSLVIPTTYAGSEMTTIWGVTEGGMKRTGRDPKVLPKTVIYDPLLTVDLPLAISVTSALNAIAHAAEGLYSADLNPVLETMCKQGICALFDAIPRLVAKPTDAEARTDALFGAWMCGTALCHLGMGLHHKLCHTLGGTLNLPHAETHAIVLPHALAYNLPYAAPAERLLQEVAGSSDVPSALYDLARNAGAPLSLAEIGMRPEDIPRVRDLALRDQYPNPRPLESDALETLLVNAFRGRRPDFK” it was “not soluble”; in that of “MRGSHHHHHHTDPALRAQDAAPRLTFTLRDEERLMMKIGVFVPIGNNGWLISTHAPQYMPTFELNKAIVQKAEHYHFDFALSMIKLRGFGGKTEFWDHNLESFTLMAGLAAVTSRIQIYATAATLTLPPAIVARMAATIDSISGGRFGVNLVTGWQKPEYEQMGIWPGDDYFSRRYDYLTEYVQVLRDLWGTGKSDFKGDFFTMNDCRVSPQPSVPMKVICAGQSDAGMAFSARYADFNFCFGKGVNTPTAFAPTAARMKQAAEQTGRDVGSYVLFMVIADETDDAARAKWEHYKAGADEEALSWLTEQSQKDTRSGTDTNVRQMADPTSAVNINMGTLVGSYASVARMLDEVASVPGAEGVLLTFDDFLSGIETFGERIQPLMQCRAHLPALTQEVAGLCGR”, “soluble”. As for “MPQLSIIIPLFNSCNFISRALQSCINQTLKDIEILIIDDKSKDNSLNMVLEFAKKDPRIKIFQNEENLGTFASRNLGVLHSSSDFIMFLDSDDFLTLDACKIALKEMKKGFDLLCFDAFVHRVKTKQFYRFKQDEFFNQKEFLEFLSKQRHFCWSVWAKCFRKDIILKSFEKIKIDERLSYGEDVLFCYVYFMFCEKIAVFKTCIYHYEFNPNGRYENKNKEILWQNYQDKKKSNELVKKLCLNFKNNDFHKKLFEVLEKEEFDLQRRVDEARNLEHHHHHH”, the “soluble on expression in E. coli” value was “soluble”. Regarding “MKLSVYVASAFSKDHKGGNKAGVVFIENSLTTTQKMAIAKQLGYAETAFISESEIADYKFEYFTPKEEVDLCGHATIGSFAILMHLNKLFRNRYTIETNSGVLTITIKDDSIFMEQNNPIFYDVVSPNEFIDCFDMKAIDNKYPIQIVSTGLKDILIPIKSETRLHALQPSFEKIKEISKYYNVVGMHLYTFNDDRIICRNFAPLYDINEEAATGTSNGALACYLHEQHNLQKEVYVFEQGYSLQSPSEILVTLATNSKNEIEKVYVGGKGYYCETKCLNVENME”, the “soluble on expression in E. coli” value is recorded as “not soluble”. In the case of “MGSDKIHHHHHHMNSLGAVIKEIRKNRKLTQKMLSEDICSQSVLSRIENNEELPNVLVMQQLCDRLGVTVDQIMRYKSGDVHVVTYSFEKMAEYFRHKKYQLLLNYLKENRIEEQLYLDTDWQKYYYYLGSCELFVLNDYEKAIASLRKGLSFTYKADKLNVSDLEIQLISCLGATYGYMGNRVEAERFLSLSIHYFNQLPNERSNAELTKIFFNYADFLFKNYTEKDAEIYVDQGITWARKKNSYYYLSELLNLKYLVLMRKNKHEEAERYLNLAQQMKNVESGNL” it was “not soluble”; in that of “MPKSLSLQDVQLRFSSKFPDKTVLKFTKNYEPVTIQCPLHGSVVYGNLQAAMKSSTGCPECTRNPEKPSPNAVAIRLEDTETGEIYEFASTLAASKFIGCSNSTLAVRLSGRTPFDRLIRYRYRLVK”, “not soluble”. “MRGSHHHHHHTDPALRANITPFPTLSPATIDAINVIGQWLAQDDFSGEVPYQADCVILAGNAVMPTIDAACKIARDQQIPLLISGGIGHSTTFLYSAIAQHPHYNTIRTTGRAEATILADIAHQFWHIPHEKIWIEDQSTNCGENARFSIALLNQAVERVHTAIVVQDPTMQRRTMATFRRMTGDNPDAPRWLSYPGFVPQLGNNADSVIFINQLQGLWPVERYLSLLTGELPRLRDDSDGYGPRGRDFIVHVDFPAEVIHAWQTLKHDAVLIEAMESRSLRGLCGR”: the “soluble on expression in E. coli” value is “soluble”. Take “MPLYVIDKPITLHILTQLRDKYTDQINFRKNLVRLGRILGYEISNTLDYEIVEVETPLGVKTKGVDITDLNNIVIINILRAAVPLVEGLLKAFPKARQGVIGASRVEVDGKEVPKDMDVYIYYKKIPDIRAKVDNVIIADPMIATASTMLKVLEEVVKANPKRIYIVSIISSEYGVNKILSKYPFIYLFTVAIDPELNNKGYILPGLGDAGDRAFG”: the “soluble on expression in E. coli” value was “soluble”. With “PMILGYWNVRGLTHPIRLLLEYTDSSYEEKRYAMGDAPDYDRSQWLNEKFKLGLDFPNLPYLIDGSRKITQSNAIMRYLARKHHLCGETEEERIRADIVENQVMDNRMQLIMLCFNPDFEKQKPEFLKTIPEKMKLYSEFLGKRPWFAGDKVTYVDFLAYDILDQYHIFEPKCLDAFPNLKDFLARFEGLKKISAYMKSSRYLSTPIFSKLAQWSNK”, the “soluble on expression in E. coli” value is reported as “soluble”. On to “MRKITSVSVGEQLDSFITRMVQSGRYGSASEVMRSALRLLEQQESRDEAVRNAVIEGLESGESSMTLRDIAAERKQKHRV”, for which the “soluble on expression in E. coli” value is “soluble”.

Consider “MGHHHHHHSHMAAAVAMETDDAGNRLRFQLELEFVQCLANPNYLNFLAQRGYFKDKAFVNYLKYLLYWKDPEYAKYLKYPQCLHMLELLQYEHFRKELVNAQCAKFIDEQQILHWQHYSRKRMRLQQALAEQQQQNNTSGK”, for which the “soluble on expression in E. coli” value is reported as “soluble”. As to “SLPTGGAPGRRWVGCRDMEHEVFVPVPAERLRDVLADPVRVARAVPGLQQDAGAEPVAGRLKVRIGSHSITYRGSLRLSARGDGTYAVEGDATESRGTGAVALALTLRADDAEGGATLTFTGTATADGRVAELPPDSVASAANRLLARFAENLGTAAQAPPAPEPEPSPQPEPRPASVFDTEVPPSSLADSGGGSDSDSDGDADEDTDAGADADADAQADEKAEAEGDADRGGRTDDEPAVSPPAEAAHARRTMIGRSAEEVDHAPPRGRYAPVPAPQPSAVGAPLRW”, the “soluble on expression in E. coli” value is listed as “soluble”. In the case of “MSLMSSKPIYKRVLLKASGEALMGDQGFGIDVAVADRIASDIAEARAMGVEVGVVVGGGNIFRGVAVASKGGDRVTGDHMGMLATVINALALATSLRKLSIDTVVLSAIAMPEICESFSQRAALHHLAQGRVVIFAGGTGNPFFTTDSAAALRAAEMGAEAIFKGTQVDGIYSADPKKDPTATRFDELTHSEVLGKGLAVMDIAAVALARENHIPIIVFSIHEKGGFAQILTGGGRKTIVHDKEGHHHHHH” it was “soluble”; in that of “MGSDKIHHHHHHMLFLSGLLGVSAQRVALKNNLLYDATLTPNLALEIGVGPKMTVDLLGGVNPFKISDDHYWKHWLAQPELRYWFCEKFNGVCIGLHGHVGQMNIAGISVPPVGSIHPKSDFDDARYHRYQGWFYGGGISIGRQWILGNHWNLEASIGGGYIHFDYDKYQCVECGKKVGVDKKADYFGLTRATLSLIYLFK”, “not soluble”.
